These results are taken from US20230183373A1 (MINERVA BIOTECHNOLOGIES, published 2023).

The labels stand for the following.
B1: mouse monoclonal antibody MN-C2 (antibody, V domains shown)
VH: EVQLEESGGGLVKPGGSLKLSCAASGFTFSGYAMSWVRQTPEKRLEWVATISSGGTYIYYPDSVKGRFTISRDNAKNTLYLQMSSLRSEDTAMYYCARLGGDNYYEYFDVWGAGTTVTVSS
VL: DIVITQSTASLGVSLGQRATISCRASKSVSTSGYSYMHWYQQRPGQPPKLLIYLASNLESGVPARFSGSGSGTDFTLNIHPVEEEDAATYYCQHSRELPFTFGGGTKLEIKR
notes: Mouse monoclonal IgG; the printed entries run a few residues into the constant regions
B2: mouse monoclonal antibody MN-C3 (antibody, V domains shown)
VH: QVQLQQSGPELVRPGVSVKISCKGSGYRFTDYAMNWVKQSHAKSLEWIGVISTFSGNTNFNQKFKGKATMTVDKSSSTAYMELARLTSEDSAMYYCARSDYYGPYFDYWGQGTTLTVSS
VL: DVLMTQTPLSLPVSLGDQASISCRSSQTIVHSNGNTYLEWYLQKPGQSPKLLIYKVSNRFSGVPDRFSGSGSGTDFTLKINRVEAEDLGVYYCFQGSHVPFTFGSGTKLEIK
notes: Mouse monoclonal IgG
B3: hu MN-E6 scFv-Fc-Y407R-hingeless (Fc fusion)
chain: AAQPAEVQLVESGGGLVKPGGSLRLSCAASGFTFSRYGMSWVRQAPGKRLEWVSTISGGGTYIYYPDSVKGRFTISRDNAKNTLYLQMNSLRAEDTAVYYCTRDNYGRNYDYGMDYWGQGTLVTVSSGGGGSGGGGSGGGGSEIVLTQSPATLSLSPGERATLTCSATSSVSYIHWYQQRPGQSPRLLIYSTSNLASGIPARFSGSGSGSDYTLTISSLEPEDFAVYYCQQRSSSPFTFGSGTKVEIKAPELLGGPSVFLFPPKPKDTLMISRTPEVTCVVVDVSHEDPEVKFNWYVDGVEVHNAKTKPREEQYNSTYRVVSVLTVLHQDWLNGKEYKCKVSNKALPAPIEKTISKAKGQPREPQVYTLPPSREEMTKNQVSLTCLVKGFYPSDIAVEWESNGQPENNYKTTPPVLDSDGSFFLRSKLTVDKSRWQQGNVFSCSVMHEALHNHYTQKSLSLSPGK
notes: The construct derives from the pSECTag2 E6 scFv-Fc, so it carries the leader and AAQPA before the scFv; also called MN-E6 scFv-Fc with deleted hinge and Y407R
B4: humanized MN-C2 scFv (scFv, V domains shown)
VH: EVQLVESGGGLVKPGGSLRLSCAASGFTFSGYAMSWVRQAPGKGLEWVSTISSGGTYIYYPDSVKGRFTISRDNAKNSLYLQMNSLRAEDTAVYYCARLGGDNYYEYFDVWGKGTTVTVSS
VL: DIVLTQSPASLAVSPGQRATITCRASKSVSTSGYSYMHWYQQKPGQPPKLLIYLASNLESGVPARFSGSGSGTDFTLTINPVEANDTANYYCQHSRELPFTFGGGTKVEIKR
notes: also called huMN-C2 scFv; hu MN-C2 scFv; not shown: Linker; which one was te; 6xHis tag (detected with Anti-Penta-His)
B5: PSMGFR minus 10 amino acids from the C-terminus (peptide)
peptide: GTINVHDVETQFNQYKTEAASRYNLTISDVSVSDV
notes: also called C-10; C-10 PSMGFR
B6: mouse monoclonal antibody MN-E6 (antibody, V domains shown)
VH: EVKVVESGGDLVKPGGSLKLSCVVSGFTFSRYGMSWVRQTPGKRLEWVATISGGGTYIYYPDSVKGRFTISRDNAKNTLYLQMSSLKSEDTAMYHCTRDNYGRNYDYGMDYWGQGTSVTVSS
VL: QIVLTQSPAIMSASPGEEVTLTCSATSSVSYIHWFQQRPGTSPKLWIYSTSNLASGVPVRFSGSGYGTSYSLTISRMEAEDAATYYCQQRSSSPFTFGSGTKLEIK
notes: Mouse monoclonal IgG; the constant regions are not; also called parent mouse MN-E6 antibody

Assay [1] has as its target T1, PSMGFR peptide (Primary Sequence of the MUC1 Growth Factor Receptor).
T1 construct: Synthetic peptide; also called MUC1* peptide; MUC1* PSMGFR peptide
T1 peptide: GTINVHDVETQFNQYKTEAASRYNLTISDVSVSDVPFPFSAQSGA
Briefly: ELISA on immobilised PSMGFR (FIG. 2B). For orientation: In an ELISA, binding on a coated surface is turned into a signal by an enzyme label.

The target of assay [2] is T2, PSMGFR minus 10 amino acids from the N-terminus.
T2 construct: also called N-10; N-10 PSMGFR
T2 peptide: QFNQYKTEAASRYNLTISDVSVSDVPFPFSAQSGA
Briefly: selection screens (FIG. 3A-C cited).

Assay [3] has as its target B5. Briefly: ELISA on immobilised N-10 and C-10 peptides (FIG. 2E).
Assay [4] concerns the target T1, PSMGFR peptide (Primary Sequence of the …). Briefly: ELISA on immobilised PSMGFR, N-10 and C-10 (FIG. 22A).
The target is the same in assay [5]. Briefly: ELISA on PSMGFR (FIG. 21A).
Assay [6] has the same target. Briefly: ELISA, surface coated with PSMGFR peptide (FIG. 5).
Assay [7] addresses T3, dimeric NME1 (human, UniProt P15531 1-152, limits assumed).
T3 construct: Used in dimer form; also called NM23-H1 dimers; dimeric NM23-H1
The assay can be described thus: ELISA on immobilised C-10 peptide (FIG. 2D).

Assay [8] has as its target T4, NME7-AB (human, UniProt Q9Y5B8 92-376, limits assumed).
T4 construct: also called NM23-H7
T4 sequence: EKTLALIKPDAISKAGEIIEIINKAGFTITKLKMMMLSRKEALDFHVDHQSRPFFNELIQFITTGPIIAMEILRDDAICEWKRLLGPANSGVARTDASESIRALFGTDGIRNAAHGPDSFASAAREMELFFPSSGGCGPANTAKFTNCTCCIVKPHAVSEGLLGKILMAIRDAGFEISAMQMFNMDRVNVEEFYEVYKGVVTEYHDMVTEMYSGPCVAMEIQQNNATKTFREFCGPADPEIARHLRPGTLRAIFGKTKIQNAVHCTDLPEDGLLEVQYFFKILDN
The assay can be described thus: ELISA on immobilised C-10 peptide (FIG. 2A).

The target in assay [9] is T1, PSMGFR peptide (Primary Sequence of the …). The assay can be described thus: ELISA on immobilised PSMGFR (FIG. 2C).

T3 sequence (P15531 whole entry): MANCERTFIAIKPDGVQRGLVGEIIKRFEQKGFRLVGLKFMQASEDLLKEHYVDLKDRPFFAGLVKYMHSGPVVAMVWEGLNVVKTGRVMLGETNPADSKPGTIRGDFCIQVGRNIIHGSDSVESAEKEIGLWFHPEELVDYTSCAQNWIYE

B1: the binding result in [1] and in assay [2] was “binds” throughout.
On to B2, for which the binding result in [3] and in assay [4] was “binds” throughout.
On to B3, for which the binding result in assay [5] was “binds”.
One may read the EC50 as the concentration needed to bring the measured effect to its halfway point. Low readings indicate greater potency, high ones weaker potency. As to B4, the 50% effective concentration (EC50) in assay [6] is about 0.333 µM.
As for B5, the binding result in [7] and in [8] was “no binding” throughout.
Regarding B6, the binding result in assay [2] and in assay [9] was “binds” in each case.
